Residue numbers refer to the chain shown, from its start.
B1: 39-3F2-2A6 (mAb-2A6) (antibody, V domains shown)
VH: DVKLVESGGGLVKPGGSLKLSCAASGFTFSSYTMSWVRQTPEKRLEWVATISSGGIYTYYPDSVKGRFTISRDNAKNTLYLQMNSLKSEDTAMYYCVRSTSYYFDYWGQGTTLTVSS
VL: DIVMTQSPSSLTVTAGEKVTMSCKSSQSLLSDGSQKNYLTWCQQKPGQPPKLLIYWASTRESGVPDRFTGSGSGTDFTLTISSVQAEDLGVYYCQNDHSYPLTFGAGTKLELK
notes: also called HANA 39-3F2-2A6; sample 22b
B2: 56-2G9-1B3 (mAb-1B3) (antibody, V domains shown)
VH: EVQLVESGGGLVKPGGSLKLSCAASGFIFSSYVMSWVRQTPEKRLEWVATISSGGTNTYYPDSVKGRFTISRDNAKNTLYLQMSSLRSEDTAIYYCVRSYRYYFDYWGQGTTLTVSS
VL: B1 VL with S31N, D32S, C42F, P49S, T59S, G90A, H98S, S99N
B3: 39-4D12-2D11 (mAb-2D11) (antibody, V domains shown)
VH: B1 VH with L18P, I56S, V64L, N84S, M93I, Y95H
VL: B1 VL with S22N, S82D, V91I
notes: also called HANA 39-4D12-2D11; sample 28b

Columns and labels:
[1] = molecular target: T1, hemagglutinin (HA) of A/Puerto Rico/8/1934 (PR8, H1N1) (Influenza A virus A/Puerto Rico/8/1934 …, UniProt P03452 18-565); test: cell-based or functional assay
[2] = molecular target: T1, hemagglutinin (HA) of A/Puerto …; test: cell-based or functional assay; remark: listed apart in the source
[3] = molecular target: synthetic peptide #34 […] (Influenza A virus A/Puerto Rico/8/1934 …); test: peptide ELISA, peptide coated at 10 µg/ml, mAb at 1 µg/ml
[4] = molecular target: synthetic peptide #39 […] (Influenza A virus A/Puerto Rico/8/1934 …); test: as above

Binder | concentration for complete neutralization of PR8, plaque inhibition assay [1] | in ovo neutralization, concentration for complete blocking of PR8 growth [1] | HI Titer to PR8 [2] | binding result [3] | binding result [4]
B1 | 0.1 µg/mL | 16 µg/mL | 80 reciprocal dilution | binds | –
B2 | 0.1 µg/mL | 8 µg/mL | 40 reciprocal dilution | – | –
B3 | 0.1 µg/mL | 4 µg/mL | 20 reciprocal dilution | – | binds
